Assay results published in patent US20180371076A1, “MATERNAL TH17 CELLS AND PSYCHIATRIC DISORDERS” (New York University, priority 2017, published 2018).

Legend:
[1] = system: offspring of pregnant mice (MIA mouse model); experiment: Ultrasonic vocalization (USV) assay in pups, MIA mouse model; assay type: in vivo
Experimental: Maternal Immune Activation. Mice were mated overnight and females were checked daily for the presence of seminal plugs, noted as embryonic day 0.5 (E0.5). On E12.5, pregnant female mice were weighed and injected with a single dose (20 mg/kg; i.p.) of poly(I:C) (Sigma Aldrich) or PBS vehicle. Each dam was returned to its cage and left undisturbed until the birth of its litter. All pups remained with the mother until weaning on postnatal day 21 (P21), at which time mice were group housed at maximum 5 per cage with same-sex littermates. For the IL-17 cytokine blockade experiment, monoclonal IL-17a blocking antibody (clone 50104; R&D) or isotype control antibody (IgG2a, clone 54447; R&D) was administered 6 h before maternal immune activation (FIG. 2) via i.p. route (500 μg/animal) or 2 days after maternal immune activation (FIG. 5) via i.p. route (500 μg/animal).
Ultrasonic vocalizations. On postnatal day 9, mice were removed from the nest and placed in a 15-cm diameter dish in a sound-attenuated chamber. Mouse ultrasonic vocalizations (USVs) were detected for 3 min using an UltraSoundGateCM16/CMPA microphone (AviSoft) in the chamber under stable temperature and light control, and recorded with SAS Prolab software (AviSoft). For certain USV tests, Ultravox software (Noldus information Technology, USA) was used. An amplitude filter was used to eliminate extraneous peripheral noise (i.e. HVAC). Due to the unreliability of automated USV scoring, all pup USVs were measured and confirmed manually by observers blind to the experimental conditions.
Maternal Immune Activation Mice were mated overnight and females were checked daily for the presence of seminal plugs, noted as embryonic day 0.5 (E0.5). On E12.5, pregnant female mice were weighed and injected with a single dose (20 mg/kg; i.p.) of poly(I:C) (Sigma Aldrich) or PBS vehicle. Each dam was returned to its cage and left undisturbed until the birth of its litter. All pups remained with the mother until weaning on postnatal day 21 (P21), at which time mice were group housed at maximum 5 per cage with same-sex littermates. For the IL-17 cytokine blockade experiment, monoclonal IL-17a blocking antibody (clone 50104; R&D) or isotype control antibody (IgG2a, clone 54447; R&D) were administered 6 h before maternal immune activation via i.p. route (500 μg/animal). For IL-6 cytokine injection into pregnant dams, carrier-free recombinant mouse IL-6 (R&D) was administered as a single dose (10 μg/animal; i.p.). For testing anti-IL17a therapeutic effects, IL-17a blocking antibody or isotype control antibody (as described above) was administered 2 days after maternal immune activation (500 μg/animal; i.p.).
Ultrasonic vocalizations On postnatal day 7-9, both male and female mice were removed from the nest and habituated to the testing room for 15 minutes (separate of dam). After the habituation period, mouse pups were placed in a clean 15 cm glass pyrex high wall dish. Mouse pup ultrasonic vocalizations (USVs) were then detected for 3 min using an UltraSoundGateCM16/CMPA microphone (AviSoft) in the sound attenuation chamber under stable temperature and light control (15 lux), and recorded with SAS Prolab software (AviSoft). USVs were measured between 33-125 kHz. USVs were scored as contiguous if gaps between vocalizations were <0.02 msec. For certain USV tests, Ultravox software (Noldus information Technology, USA) was used. An amplitude filter was used to eliminate extraneous peripheral noise (i.e. HVAC). Due to the unreliability of automated USV scoring, all pup USVs were measured and confirmed manually by observers blind to the experimental conditions.
Intraventricular cytokine injection At E14.5, uterine horns of pregnant mice were exposed by a caudal ventral midline incision (<2 cm). Each uterine horn was exteriorized carefully and each fetus was identified. […]

[2] = system: cortex of the fetal brain; experiment: Cortical development: SATB2/TBR1/CTIP2 immunohistochemistry of fetal and adult offspring brain; assay type: in vivo, mouse
Experimental: Immunohistochemistry. Animals were transcardially perfused with 4% paraformaldehyde in PBS under Ketamine/xylazine anesthesia. The brains were removed and sectioned at 100-μm thickness with a Leica VT1000S vibratome (Leica, USA). Slices were permeabilized with blocking solution containing 0.4% Triton X-100, 2% goat serum, and 1% BSA in PBS for 1 hr at room temperature, and then incubated with anti-TBR1 (ab31940, Abcam), anti-SATB2 (ab51502, Abcam) and anti-CTIP2 (ab18465, Abcam) antibodies overnight at 4° C. The following day, slices were incubated with fluorescently conjugated secondary antibodies (Invitrogen, USA) for 1 h at room temperature, and mounted in vectashield mounting medium with DAPI (Vector laboratories). Images of stained brain slices were acquired using a confocal microscope (LSM710; Carl Zeiss) with a 20× objective lens; all image settings were kept constant.
Intraventricular cytokine injection At E14.5, uterine horns of pregnant mice were exposed by a caudal ventral midline incision (<2 cm). Each uterine horn was exteriorized carefully and each fetus was identified. Recombinant mouse IL-17a cytokine (R&D, 0.6 μL of 2 ng/μL), IL-6 (R&D, 0.6 μL of 10 ng/μL) or saline together with the dye Fast Green (Sigma, 0.3 mg/mL) was injected (3-4 μL) into the third ventricle of each embryo by a pulled micropipette. After injection of all embryos, the uterus was replaced within the abdomen and the cavity was lavaged with warm sterile saline.
Immunohistochemistry Fetal brains of male embryos were dissected and fixed with 4% paraformaldehyde in PBS for 6 h at 4° C. Adult brains of male offspring were perfused and fixed with 4% paraformaldehyde in PBS for overnight at 4° C. The brains were removed and sectioned at 50-μm thickness with a Leica VT1000S vibratome (Leica, USA). Slices were permeabilized with blocking solution containing 0.4% Triton X-100, 2% goat serum, and 1% BSA in PBS for 1 h at room temperature, and then incubated with anti-TBR1 (ab31940, Abcam), anti-SATB2 (ab51502, Abcam), and anti-CTIP2 (ab18465, Abcam) antibodies overnight at 4° C. The following day, slices were incubated with fluorescently conjugated secondary antibodies (Invitrogen, USA) for 1 h at room temperature, and mounted in vectashield mounting medium with DAPI (Vector laboratories). Images of stained brain slices were acquired using a confocal microscope (LSM710; Carl Zeiss) with a 20× objective lens; all image settings were kept constant. Spatial locations of the patches were registered based on their distance from the midline of the brain. These cortical malformations were quantified using cropped images containing the malformations, or the corresponding region in WT brains. The region of interest (300×300 μm^2) was divided into 10 equal laminar blocks representing different depths of the cortical plate. SATB2-, TBR1-, or […] cells were counted using Image J software. Signal intensity in each image was normalized relative to the total signal intensity.

[3] = injection into pregnant WT mothers (10 μg/animal; i.p.)

With poly(I:C) the “number of pup USV calls” value ([1]; poly(I:C)-injected mothers pretreated with control antibody, vs PBS-injected mothers) was “emitted more USV calls”, the “cortical thickness of the fetal brains at E18.5” value ([2]; MIA (poly(I:C))) was “did not affect cortical thickness” and the “cortical cytoarchitecture at E18.5” value ([2]; MIA (poly(I:C)) vs PBS) was “patch of disorganized cortical cytoarchitecture”. For the same molecule, the “SATB2 and SATB2/TBR1 expression in fetal brain cortical plates at E14.5 and E18.5” value ([2]; MIA (poly(I:C)) vs control) was “abnormal expression”, the “SATB2 expression at E14.5” value ([2]; MIA (poly(I:C)) vs control) was “delayed expression of SATB2” and the “abnormal expression of SATB2, TBR1 and CTIP2 in adult offspring” value ([2]; MIA adult offspring (P60)) was “maintained”.

B1: recombinant IL-17a protein: Recombinant mouse IL-17a cytokine (R&D), injected into the fetal brain ventricle (protein, UniProt Q62386 26-158, looked up)
Interleukin-17A: AAIIPQSSACPNTEAKDFLQNVKVNLKVFNSLGAKVSSRRPSDYLNRSTSPWTLHRNEDPDRYPSVIWEAQCRHQRCVNAEGKLDHHMNSVLIQQEILVLKREPESCPFTFRVEKMLVGVGCTCVASIVRQAA
In the case of B1, the “pup USVs” value ([1]; injection into brains of fetuses from poly(I:C)-injected IL-6 KO mothers, vs PBS-injected controls) is reported as “increased pup USVs”, the USV phenotype ([1]; injection into the ventricles of IL-17Ra KO fetuses) is reported as “nor enhanced USV phenotypes were observed” and the USV phenotype ([1]; intra-ventricular injection at E14.5, compared with sham injection) is reported as “enhanced USV phenotype”. For the same molecule, the “cortical organization (SATB2, TBR1) at E18.5” value ([2]; injected into the ventricles of the fetal brain at E14.5 in the absence of MIA) was “appearance of disorganized cortical patches” and the “thickness of the cortical plate at E18.5” value ([2]; intra-ventricular injection at E14.5) was “thinned cortical plates at the medial but not lateral part of the brain”.

B2: recombinant IL-6: carrier-free recombinant mouse IL-6 (R&D) (protein, UniProt P08505 25-211, looked up)
Interleukin-6: FPTSQVRRGDFTEDTTPNRPVYTTSQVGGLITHVLWEIVEMRKELCNGNSDCMNNDDALAENNLKLPEIQRNDGCYQTGYNQEICLLKISSGLLEYHSYLEYMKNNLKDNKKDKARVLQRDTETLIHIFNQEVKDLHKIVLPTPISNALLTDKLESQKEWLRTKTIQFILKSLEEFLKVTLRSTRQT
For B2, the USV phenotype ([1]; injection into WT fetal brains at E14.5) was “nor enhanced USV phenotypes were observed”, the “USV phenotype in offspring” value [1, 3] was “enhanced USV” and the “cortical phenotype in offspring” value [2, 3] was “sufficient to produce MIA-associated behavioral (enhanced USV) and cortical phenotypes”.
